Data from the supplement of paper PMC10724198.
± gives the standard deviation of the averaged measurements.

The sequences below were run on Saccharomyces cerevisiae (assay: protein stability index of tFT-peptide fusion (C-terminal peptide) (PSI (0-1 scale)); higher = more stable (slower turnover)). Conditions: genetic background: wild type; temperature: 30 C.
Method: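 Multiplexed protein stability (MPS) profiling in S. cerevisiae. Random 12-aa peptides (tFT-X12 library) are fused to the C-terminus of a sfGFP-mCherry tandem fluorescent timer, after mCherry and a GGGS linker. Cells are FACS-sorted into 8 mCherry/sfGFP bins and deep-sequenced. The protein stability index (PSI) is the read-weighted bin average, scaled from 0 (unstable) to 1 (stable). Only peptides with >10 reads are reported; cells were grown at 30 °C in SC-His with glucose.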
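Also: PSI is a weighted mean of sequencing reads over stability bins, variants kept only with over 10 reads, mCherry proximal and sfGFP distal, peptide attached via GGGS linker.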

Sequence	protein stability index
PQIIFVSRASYL	0.681 ± 0.015
GGCLSVLGLGSV	0.688 ± 0.031
GRGEIQDRRCRG	0.668 ± 0.049
SRGVSIQQSIKI	0.726 ± 0.037
LQKNKIPTKKKD	0.647 ± 0.0097
LWVSGARTTGYF	0.756 ± 0.048
GGRGRVGEMGGR	0.677 ± 0.015
IGATSMSREARY	0.7052 ± 0.0017
GFGILGLPQPCV	0.662 ± 0.067
APPPGSTFVSCE	0.674 ± 0.045
KKKKEKNKHNIR	0.72 ± 0.009
NLETVAENMFLA	0.71 ± 0.053
CEAWLTDEGLRD	0.742 ± 0.016
RLTYVGDYELYV	0.686 ± 0.053
VFCGCGGCVSLG	0.655 ± 0.014
SGSVLHEFILVV	0.543 ± 0.028
QKNETNQWKGKK	0.672 ± 0.032
LLSVPSLFCQFF	0.683 ± 0.057
KHFLFSVVHFSG	0.696 ± 0.028
SIRGLRTLKFLG	0.6739 ± 0.0049
LGLQHPSAWLFP	0.678 ± 0.045
PPYAPPDHPPFR	0.699 ± 0.03
HIVSRKYNYPCT	0.739 ± 0.088
RRLLLAGTQLYV	0.598 ± 0.073
FGFHSLSISFFM	0.611 ± 0.035

Sequence	protein stability index
LDSSPPCSSNCD	0.736 ± 0.058
VWSGGCVSRWSG	0.745 ± 0.15
RPAPPPHPLSPV	0.7 ± 0.031
DVDYGEIDYQIK	0.708 ± 0.011
PPSSPPPPLPPS	0.712 ± 0.035
GGGIERYCWLQI	0.708 ± 0.067
VCFCLGNVTMEF	0.732 ± 0.017
PQTAGTHRARVN	0.698 ± 0.026
PPPYPFPHLSPL	0.713 ± 0.029
PHSPLPAHPPCR	0.745 ± 0.14
PAASRPPSPSLL	0.665 ± 0.046
PKRTHDPAPKTT	0.70897 ± 0.00058
PSQWLPSRSRTA	0.733 ± 0.052
DRLTLEKKGRGM	0.684 ± 0.016
SRLRVVRCVSWV	0.549 ± 0.1
VCDGIIQGNGTI	0.705 ± 0.021
SKKKKNLQIPKK	0.734 ± 0.12
GSNMTQAMTAGG	0.656 ± 0.027
THCSGAGPPSPP	0.689 ± 0.068
LLSHLPLPSSPP	0.737 ± 0.096
NREPQPAHTHML	0.684 ± 0.043
APAPAPARTPTR	0.683 ± 0.016
KKGKSKKKGKKT	0.6906 ± 0.0018
GEGLGIGGYVRG	0.672 ± 0.044
AGGGHCVGMGVG	0.642 ± 0.037

Sequence	protein stability index
KPRFRATPRQTT	0.713 ± 0.037
FLGGDVVGVFVG	0.658 ± 0.059
NEHTTLKITKNK	0.6818 ± 0.003
LGNANKRPREIK	0.718 ± 0.032
KPKANTEKIPIQ	0.68 ± 0.018
VGGLMVYTGDVA	0.704 ± 0.015
TRDTEKTGRREP	0.715 ± 0.0013
PPLCPPLQPPLI	0.639 ± 0.02
LCRYFLRGVINT	0.64998 ± 0.00026
KGDCGGRGCGRH	0.682 ± 0.0076
SCFLISIPLGFV	0.5678 ± 0.0055
IVGIEGYNEIKT	0.803 ± 0.27
IYSWSAALFHCR	0.75 ± 0.1
VFVDGVSYGGLC	0.6811 ± 0.0058
VIASPALLLPLF	0.642 ± 0.062
FGRVRFCFRMRS	0.671 ± 0.025
IHLQGSSYRSLT	0.68 ± 0.14
APQTELTGVLFG	0.685 ± 0.0071
PEMCEKRIKTPT	0.634 ± 0.031
RPAPPLFVSSPG	0.699 ± 0.0097
PPPPPPPRALNL	0.687 ± 0.038
SFLFWFFASGWL	0.56 ± 0.047
KVSCGGAGDSLG	0.693 ± 0.022
IRGGGGLGGGGV	0.703 ± 0.023
QYKRFYGSLVNG	0.608 ± 0.047

Sequence	protein stability index
RLSSPTRINHPN	0.71 ± 0.04
VESGVLCPGVGA	0.634 ± 0.02
PSPPPSISIPPS	0.73 ± 0.17
SLRPALSFLPLP	0.716 ± 0.054
PGPTNSSLTASD	0.7667 ± 0.0037
GDRGTLTPLRRQ	0.678 ± 0.0073
DWWFGQVYLSKE	0.705 ± 0.011
DPTPLALSPDHP	0.63 ± 0.057
PITFPPSLPPPP	0.666 ± 0.045
ANHRPCIPPPPR	0.657 ± 0.073
PLHSPPSRPCQL	0.691 ± 0.065
FLQIPVQILPDP	0.705 ± 0.027
GSVSGCVGVMRG	0.641 ± 0.01
LSMPRVHTRHRP	0.708 ± 0.014
SVWVCLASWCCG	0.5487 ± 0.0038
YFFRLLYRLWSR	0.676 ± 0.092
TPPRHTRTSQTV	0.648 ± 0.0083
VKWFRESRMVGA	0.65 ± 0.027
NHETRNCEGINS	0.657 ± 0.026
RGWGWGRKVSVG	0.62 ± 0.069
RDAVLSCARRSQ	0.752 ± 0.17
VFFRGVVVLLRL	0.472 ± 0.048
KTENGRSNSETR	0.686 ± 0.074
ILQGENKEGINT	0.668 ± 0.035
LLFFFTWCLCCF	0.569 ± 0.028

Sequence	protein stability index
ICSLLIRREELV	0.681 ± 0.081
SIQVFDTYIITD	0.697 ± 0.068
PSAGSPAPLLHP	0.705 ± 0.064
SSWWPVRRTRLG	0.587 ± 0.022
ECFVCGGGILGG	0.637 ± 0.09
CCGLYLGAGCAY	0.674 ± 0.017
LSVTGGRFSVSG	0.7174 ± 0.0063
TIIRQRHYAPNL	0.6771 ± 0.0056
AVAIGQGLSAGV	0.686 ± 0.053
TRQRSDRPRAPR	0.6523 ± 0.00075
RGLPVLTFPHTP	0.71 ± 0.0095
NHTKAGTEKNKN	0.618 ± 0.067
PSLPDSALRHSL	0.70673 ± 9.8e-05
ASKKSVVFKQKT	0.6586 ± 0.0013
AGKYCCFMVFVV	0.649 ± 0.033
EKQKNLPQEAKQ	0.7 ± 0.02
VVSYFFSNDVLH	0.752 ± 0.073
GKRWPSINKGPV	0.6851 ± 0.0051
WNRSAFLSSGTI	0.67578 ± 3.2e-05
KNRHWNKKIRKC	0.6533 ± 0.0065
DVQISSGRGVCS	0.672 ± 0.054
KKNETKQEKNTR	0.689 ± 0.026
DVLRLRSVFFCG	0.631 ± 0.047
ESRARRRQGGKR	0.738 ± 0.015
RGARGGRLVCRE	0.689 ± 0.043

Sequence	protein stability index
PPPSSPPSPVIR	0.694 ± 0.056
GGGEGVPDSASE	0.668 ± 0.021
TTEESGGEGEGG	0.664 ± 0.014
AAWLSQLNKVNV	0.6679 ± 0.0014
KPLPPPEFRPHP	0.69 ± 0.02
LFAGTFTEYPLS	0.641 ± 0.078
ARVAGECRCGRT	0.6554 ± 0.00095
PSPRPSPRPSPR	0.692 ± 0.062
LFPFIPPRLPLP	0.687 ± 0.01
EREKERNKNGKY	0.671 ± 0.013
PPRAPSPLPPPL	0.704 ± 0.027
GPTPSVKGDRDT	0.632 ± 0.044
SLLILMYHIAPF	0.53 ± 0.03
APLRAPYPPPPY	0.7153 ± 0.0014
EKKKKRNKVNQN	0.709 ± 0.064
NGLPGNLYAGKT	0.6558 ± 0.0062
FGYGLPFPERVE	0.781 ± 0.046
SCDIFIYTHLVS	0.612 ± 0.031
PPPLLPAPGSTI	0.662 ± 0.0079
SAVVPYLGWSPV	0.708 ± 0.015
VMRRYVFPSGFF	0.677 ± 0.023
